Columns and labels:
[1] = biological target: T1, human LAP-TGFβ1 with a Y74T mutation on HT1080 cells (human, UniProt P01137 30-390); experiment: flow cytometry, HT1080 cells; grey bar = no anti-LAP antibody
T1 construct: also called HT1080-Y74T; open conformation
Experimental: (§1) This Example describes the binding of anti-LAP antibodies to LAP-TGFβ isoforms and LAP-TGFβ variants. In addition to antibodies 28G11_hIgG1, 22F9_hIgG1, and 20E6_hIgG1, anti-LAP antibodies 17G8_hIgG1, 24E3_hIgG1, and 2C9_(hyb) were also tested in this experiment. Briefly, 4×10⁵ each of (a) HT1080 cells, (b) HT1080 cells overexpressing human LAP-TGFβ1, (c) HT1080 cells overexpressing human LAP-TGFβ2, (d) HT1080 cells overexpressing human LAP-TGFβ3, (e) HT1080 cells overexpressing murine LAP-TGFβ1, (f) P3U1 cells, (g) P3U1 cells overexpressing LAP-TGFβ1 and GARP, and (h) P3U1 cells overexpressing LAP-TGFβ1 and LRRC33 were cultured in 96-well plates. The plates were centrifuged for 5 min at 1,500 rpm, liquid was removed, and cells were resuspended with 200 μL FACS buffer. The plates were centrifuged again, diluted primary antibody was added to each well, and the plates were incubated on ice for 20 minutes, followed by centrifugation. The cells were resuspended in 200 μL FACS buffer, centrifuged again, and resuspended in 50 μL diluted secondary antibody (Alexa647-anti-Human IgG or APC-anti-Mouse IgG). The plates were incubated on ice for 20 minutes in the dark, washed twice with 200 μL FACS buffer, and cells from each well (in 200 μL FACS buffer) were read on the Attune NXT instrument.
(§2) Cells were processed for flow cytometry in the same manner described above for the isoform-specific binding experiments.

[2] = biological target: T2, human-chicken LAP-TGFβ1 chimera #2.3 on HT1080 cells (human/chicken chimera, UniProt P01137 30-390); experiment: as above
T2 construct: also called HT1080-ch2.3
T2 sequence (P01137 other isoform, or with tags, fused parts or gaps mutant): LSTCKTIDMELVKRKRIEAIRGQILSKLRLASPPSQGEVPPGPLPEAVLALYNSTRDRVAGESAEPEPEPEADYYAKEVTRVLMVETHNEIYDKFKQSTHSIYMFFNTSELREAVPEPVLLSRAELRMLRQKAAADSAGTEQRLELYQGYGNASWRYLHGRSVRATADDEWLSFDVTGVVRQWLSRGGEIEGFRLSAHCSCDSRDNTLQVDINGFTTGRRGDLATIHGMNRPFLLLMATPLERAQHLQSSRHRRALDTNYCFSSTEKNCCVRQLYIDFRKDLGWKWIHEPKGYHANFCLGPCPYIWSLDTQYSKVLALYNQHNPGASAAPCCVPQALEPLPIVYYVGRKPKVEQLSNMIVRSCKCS
Experimental: as §1, §2

[3] = biological target: T3, LAP-only variant of human TGFβ1 (empty LAP) on HT1080 cells (human, UniProt P01137 30-277); experiment: as above
T3 construct: LAP without the mature cytokine; also called HT1080-emptyLAP; LAP-only construct
T3 sequence (P01137 30-277, change not shown): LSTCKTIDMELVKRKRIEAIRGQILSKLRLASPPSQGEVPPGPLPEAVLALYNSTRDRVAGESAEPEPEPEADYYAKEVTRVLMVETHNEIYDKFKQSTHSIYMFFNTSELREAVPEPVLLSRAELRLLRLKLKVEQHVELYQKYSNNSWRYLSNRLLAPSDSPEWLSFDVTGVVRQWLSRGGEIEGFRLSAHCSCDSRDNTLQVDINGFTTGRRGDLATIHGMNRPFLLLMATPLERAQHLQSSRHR
Experimental: as §1, §2

[4] = biological target: T4, human-chicken LAP-TGFβ1 chimera #2.2 on HT1080 cells (human/chicken chimera, UniProt P01137 30-390); experiment: as above
T4 construct: also called HT1080-ch2.2
T4 sequence (P01137 other isoform, or with tags, fused parts or gaps mutant): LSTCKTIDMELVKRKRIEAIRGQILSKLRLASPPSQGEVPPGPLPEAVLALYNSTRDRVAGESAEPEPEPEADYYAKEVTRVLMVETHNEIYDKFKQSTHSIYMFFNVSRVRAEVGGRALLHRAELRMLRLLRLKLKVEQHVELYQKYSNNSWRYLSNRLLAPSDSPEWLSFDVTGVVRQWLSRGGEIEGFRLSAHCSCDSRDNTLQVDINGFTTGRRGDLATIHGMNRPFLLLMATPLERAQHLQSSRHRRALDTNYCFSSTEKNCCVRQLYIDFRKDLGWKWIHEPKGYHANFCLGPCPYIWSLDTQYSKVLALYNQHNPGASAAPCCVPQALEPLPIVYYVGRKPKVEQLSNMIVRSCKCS
Experimental: as §1, §2

[5] = biological target: T5, human LAP-TGFβ1 with K27C and Y75C mutations on HT1080 cells (human, UniProt P01137 30-390); experiment: as above
T5 construct: also called closed conformation
T5 sequence (P01137 other isoform, or with tags, fused parts or gaps K27C Y75C K27C Y75C): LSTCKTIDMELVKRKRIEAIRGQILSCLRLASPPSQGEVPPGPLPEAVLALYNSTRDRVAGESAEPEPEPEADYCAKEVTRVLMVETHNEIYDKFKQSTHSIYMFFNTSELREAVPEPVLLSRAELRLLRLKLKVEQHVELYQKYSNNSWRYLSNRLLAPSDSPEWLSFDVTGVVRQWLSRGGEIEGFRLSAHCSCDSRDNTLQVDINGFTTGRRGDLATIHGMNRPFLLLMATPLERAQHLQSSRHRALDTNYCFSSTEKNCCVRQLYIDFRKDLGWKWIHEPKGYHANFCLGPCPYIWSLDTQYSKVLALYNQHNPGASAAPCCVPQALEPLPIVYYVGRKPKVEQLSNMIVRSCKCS
Experimental: as §1, §2

[6] = biological target: human LAP-TGFβ1 overexpressed on cells (human, UniProt P01137 30-390); experiment: cell-based or functional assay
human LAP-TGFβ1 overexpressed on cells, sequence (P01137 30-390): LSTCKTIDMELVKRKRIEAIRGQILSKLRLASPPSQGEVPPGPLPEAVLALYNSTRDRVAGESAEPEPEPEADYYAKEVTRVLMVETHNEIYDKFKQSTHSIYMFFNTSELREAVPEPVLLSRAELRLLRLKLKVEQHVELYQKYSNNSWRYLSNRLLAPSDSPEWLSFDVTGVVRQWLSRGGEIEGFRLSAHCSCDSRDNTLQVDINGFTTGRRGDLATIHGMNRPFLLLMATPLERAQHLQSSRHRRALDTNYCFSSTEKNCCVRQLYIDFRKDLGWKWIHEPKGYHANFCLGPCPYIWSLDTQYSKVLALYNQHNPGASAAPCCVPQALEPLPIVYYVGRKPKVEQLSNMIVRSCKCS

[7] = biological target: T6, human LAP-TGFβ2 overexpressed on HT1080 cells (human, UniProt P61812 21-414); experiment: flow cytometry titration, HT1080-huB2 cells
T6 construct: also called HT1080-huB2
T6 sequence: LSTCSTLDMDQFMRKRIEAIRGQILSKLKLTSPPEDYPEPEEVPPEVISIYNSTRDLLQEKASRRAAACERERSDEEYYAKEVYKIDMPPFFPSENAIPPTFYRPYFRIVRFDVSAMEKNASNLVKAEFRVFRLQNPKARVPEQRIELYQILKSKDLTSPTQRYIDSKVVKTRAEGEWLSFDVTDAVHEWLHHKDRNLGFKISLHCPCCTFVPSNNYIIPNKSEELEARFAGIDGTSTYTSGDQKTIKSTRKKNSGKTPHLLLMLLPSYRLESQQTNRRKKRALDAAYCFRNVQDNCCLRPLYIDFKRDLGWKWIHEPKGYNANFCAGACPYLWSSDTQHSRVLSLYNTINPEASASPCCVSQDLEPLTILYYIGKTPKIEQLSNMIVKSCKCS
Experimental: as §1

T1 sequence (P01137 other isoform, or with tags, fused parts or gaps Y74T Y74T): as the sequence (P01137 other isoform, or with tags, fused parts or gaps K27C Y75C K27C Y75C) above, with C27K, Y74T, C75Y counted along it

binding result [1]: no binding
binding result [2]: binds
binding result [3]: no binding
binding result [4]: no binding
binding result [5]: binds
Inhibition of human TGFβ1 activation (IC50) [6]: 3.9 µg/mL
binding result [7]: no binding (tested: about 800 ng/well)
B1: 22F9_hIgG1 (antibody, V domains shown)
VH: QVQLQQPGAELVKPGASVKLSCKASGYTFTSYWMHWVKQRPGQGLEWIGMIHPNSGSTNYNEKFKSKATLTVDKSSSTAYMQLSSLTSEDSAVYYCAYYDYDGFFDVWGTGTTVTVSS
VL: DIVLTQSPASLDVSLGQRATISCRASKSVSTSGYSYMHWYQQKSGQPPKLLIYLASNLESGVPARFSGSGSGTHFTLNIHPVEEEDAATYYCQHSRELPYTFGGGTKLEIK

Reference: patent US20220017612A1 (TILOS THERAPEUTICS, published 2022)
